{"source": "the nanobody polyreactivity screen of Harvey et al. (2022)", "data": [{"test": "yeast display, Sf9 membrane polyspecificity reagent, FACS + sequencing; frameworks hold sequencing errors", "procedure,_shortened": "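In a synthetic yeast display library (Saccharomyces cerevisiae BJ5465), nanobody expression was induced with galactose for 36–48 hours. FACS gates were set low and high (top ~1%) using anti-HA fluorescence for expression and streptavidin fluorescence for binding of the Sf9 membrane reagent. Each polyreactivity label is drawn from the gate of origin.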", "values": [{"sequence": "QVQLVESGGGLVQAGGSLRLSCAASGSTFGGYTMGWYRQAPGKERELVAAITSGGGRTYYADSVKGRFTISRDNSKNTVYLQMNSLKPEDTAVYYCATGYKGLYWKYDYWGQGTLVTVSS", "polyreactivity (PSR sort gate)": "high polyreactivity"}, {"sequence": "QVQLVESGGGLVQAGGSLRLSSAASGRISGYNMGWYRQAPGKERELVAAISNGGSTNYADSVKGRFTISRDNAKNTVYLQMNSLKPEDTAVYYCNRRVPYSFYSRGYYYWGQGTQVTVSS", "polyreactivity (PSR sort gate)": "high polyreactivity"}, {"sequence": "QVQLEESGGGLVQAGGSLRLSCAASGFTFSYYAMGWYRQATGKERELVAAITSSAGSTYYADSVKGRFTISRDYAKNSFYLQMTSLKPEDTEVYYCYAVYSKLNGGYDYWGQGTQVTVSS", "polyreactivity (PSR sort gate)": "low polyreactivity"}, {"sequence": "QVQLVESGGGLVQAGGSLRLSCAASGRTFWSYAMGWYRPAPGKERELVAAINSSGDSTNYADSVKGRFTISRDNAKNTVYLQMNWLKPEDTAVYYCAADGGLLAGSDATVRMDYWGQGTQVTVSS", "polyreactivity (PSR sort gate)": "low polyreactivity"}, {"sequence": "QVQLVESGGGIVEAGVSLRLRGAASGGSFKSKAMVWYRQAPGNEREFVAAISSSGGSTYYADSVKGRFTISRDNAKNTVYLLMNILKPEDTAVYYCAADDYGYPYLSYDYWGQGTQVTVSS", "polyreactivity (PSR sort gate)": "high polyreactivity"}, {"sequence": "QVQLVESGGGLDQAGGSLRLSCAASGRTFADYAMGWYRQAPGNERELVADISKRGGSTYFADSVKGRFTISRDNAKNTFYLQMNSLKAEDTAVYYCAAGWYYYPTFYKVKSYNYWGQGTQVTVSS", "polyreactivity (PSR sort gate)": "high polyreactivity"}, {"sequence": "QVQLVESGGGLVEAVGSLRLSCAASGINFQGNAMGWSRQAPGKERELVASITAGGDTTYYADSVKGRFTISRDNAKNTVYFQMNSLKPEDTAVYYCATRLYGYWPYGFDYWGQGTQVTVSS", "polyreactivity (PSR sort gate)": "low polyreactivity"}, {"sequence": "QVQLVESGGGLVQAGGSLRLSCAASGSIFVHNDMGWYRQAPGKERELVATIDSAGGTYYADSVKGRFTISRDNAKNTVYLQMNSLKPEDTAVYYCAAYGPYVLSIYDYWGQGTQVTVSS", "polyreactivity (PSR sort gate)": "low polyreactivity"}, {"sequence": "QVQLVETGGGLVQAGGSLRLSCAASGFTIWKYAMGWYRQAPGKERELVAAISLGGGRTYYADSVKGRFTISRDNANNTVYLQMNSLKPEDTAVYYCNAKIVSSVLYDYWGQGNQVTVSS", "polyreactivity (PSR sort gate)": "low polyreactivity"}, {"sequence": "QVQLVESGGGLVQAGGSLRLSCAASGIIFRVYAMGWYRQAPGKERELVATITWSGGSTFYADSVKGRFTISRDNAKNTVYLQMNSLKPEDTAVYYCAKRGYVRSGLGRPYADDYWGQGTQVTVSS", "polyreactivity (PSR sort gate)": "low polyreactivity"}, {"sequence": "QVQLVESGGGLVQAGGILRLTCAASGRTNTYNAMGSYRQAPGKERELVAAITWSGGSTYYADSVKGRFTISRDNAKNTVYLQMNSLKPEDTAVYYCAKEFYYSSGFDYWGQGTQVTVSS", "polyreactivity (PSR sort gate)": "low polyreactivity"}, {"sequence": "QVQLVESGGGLVQAGGSLRLSCAAYGRIFLGYAMGWYIQAPGKERELVAVISYSGTRTYYADSVKGRFTISRDNAKNTVYLQMNSLKPEDTAVYYCNARANGFKDGYWGQGTQVTVSS", "polyreactivity (PSR sort gate)": "high polyreactivity"}, {"sequence": "QVQLVESGGGLVQAGGSLRLSCAASGRIFYYYAMGWYRQAPGKERELVAAITRRGGSTYYADSVKGRFTISRDNAKNTVYLQLNSLKPEDTAVYYCAKPDRTGWLDGDYWGQGTQVTVSS", "polyreactivity (PSR sort gate)": "low polyreactivity"}, {"sequence": "QVQLVESGGGLVQAGGSLRLSCAASGSTFGKYAMGWYRQAPGKERELVAAITESDSSTYYADSVKGRFTLSRDNAKNTVYLQMNSLKPEDTAVDYCAADSLYSYPWSTYFYGGDYWGQGTQVTVSS", "polyreactivity (PSR sort gate)": "low polyreactivity"}, {"sequence": "QVQLVESGGGLVQAGGSLRLSCAASGLTFGIYAMGWYRQAPGKERELVATISWRGGSTYYADSVKGRFTISRDNAKNTVYLQMNSLKPEDTAVYYCNADNEYRLGYWDDSCGQGTQVTVSS", "polyreactivity (PSR sort gate)": "low polyreactivity"}, {"sequence": "QVQLVESGGGLVQAGGSLRLSCAASGLTFPRYAMGWYRQAPGKEREFVAGITYSGGSTYYADSVKGRFTISRDNAKNTVYLQMNSLKPEDTAVYYCAATPWSYEYYYWGQGTQVTVSS", "polyreactivity (PSR sort gate)": "low polyreactivity"}, {"sequence": "QVQLVESGGGLVQARGSLRLSCAASGSTSDINAMGWYRHAPGKARELVAVITDSSNTDYADSVKGRFTISRDNAKNTVYLQMNSLKPEDTAVYYCARDDATAGDYWGQGTQVTVSS", "polyreactivity (PSR sort gate)": "low polyreactivity"}, {"sequence": "QVQLVESGGGLVQAGGSLRLSWAASGFIFAYYAMGWYTPAPGKERELVAAISKRGGSTYYADSVKGRFTISRDNAKNTVYLQMNSLKPEDTAVYYCAADGHGGYGYWGQGTQVTVSS", "polyreactivity (PSR sort gate)": "high polyreactivity"}, {"sequence": "QVQLVEEGGGLVQAGGSLRLSCAASGRISYYYTMGWYSQAPGKERELVAAISWSGGTTYYADSVKGRFTISRDNAKYTVYLQMYSLKPEDTAVYYCAARDYYTDFHGTRRYDYWGQGTLVTVSS", "polyreactivity (PSR sort gate)": "low polyreactivity"}, {"sequence": "QVQLVESGGGLVQAGGSLRLSYAASGSTFHLYAMGWYRQAPGKERELVASINSGGSTYYADSVKGRFTISRDNAKNTVYLQMNSLKPEDTAVYYCAADAYSWWGRWERYPYTTMYYWGQGTQVTVSS", "polyreactivity (PSR sort gate)": "low polyreactivity"}, {"sequence": "QVQRVESAAGLVQAGGSLRLSCAASGSIFWFNSMGWSRPEPGKERELVATIRYSGCSTYYADSVKGRFTISRDNAKKTVYLLMNSLKPDDTAVYYSAAVYRYSRSGYEYWGQGTQVTVSS", "polyreactivity (PSR sort gate)": "high polyreactivity"}, {"sequence": "QVQLAESGGGLVQAGGSLRLSCAPSGSTFEINAMGWYRQAPGKETELVAAISRGGSTNYADSVKGRFSISRDNAKNTVYLQMNSLKPEDSAVYDCARDPRFRYYRVSYANDQEFEYSGQGTQVTVSS", "polyreactivity (PSR sort gate)": "high polyreactivity"}, {"sequence": "QVQLVESGGGLVQAGGSLRLSCAASGRTVVNAMGWYRQAPGKERELVAAISSNGGRTYYADSVKGRFTISRDNAKNTVYLQMNSLKPEDTAVYYCATRWIKGRKMDYWGQGTQVTVSS", "polyreactivity (PSR sort gate)": "high polyreactivity"}, {"sequence": "QVQLVESGGGLVQAGGSLRLSCAASGITFSVNAMGWYRQAPGKERELVASISSGGSTNYADSVKGRFTISRDNAKNTVYLQMNSLKPEDTAVYYCAVAYYPHGREGAHFQYGYDYWGQGTQVTVSS", "polyreactivity (PSR sort gate)": "low polyreactivity"}, {"sequence": "QVQLVESGGALVQAGGSLRLSCAASGIIFNLYAKGWYRPAPGKEMELVAAITSSGTSTYYADSVKGRFTISRDNAKNTVYLQMNSLSPEDTAVYYCAAERGFYYFVEYDYWGQGTQVTVSS", "polyreactivity (PSR sort gate)": "high polyreactivity"}, {"sequence": "QVQLVESGGGLVQAGRSLRLSCAASGITFSRNDMGWYRQAPGKEMQLVAAISRSGGRTYYADSVKGRFTLSRDNAKNTVYLQMNCLNPEDTAVYYCNRDIGGTSVLDDYWGQGTQVTVSS", "polyreactivity (PSR sort gate)": "low polyreactivity"}, {"sequence": "QVQLVDSAGGLVQAGGSLRLSCAASGSIFFRYAMGGYRQAAGKERELVAAITQRTGSTYYADSVKGRFTISRDNAKITVYLQMNSLKPEDTAVYYCAAKRWRRSFTGNYWGQGTQVTVSS", "polyreactivity (PSR sort gate)": "high polyreactivity"}, {"sequence": "QVQLVESGGGLVQAGGSLRLSCAAPGSTFVYYAMGWFRQAPGKEGELVAAISRSGGHTYYADSVKGRFTISRDKAKKTVYLQMNSLKPEETAVYYCAARSYGVQYYYWGQRTQVTVSS", "polyreactivity (PSR sort gate)": "high polyreactivity"}, {"sequence": "QVQLVESGGGLVQAGGSLRLSCAASGSILRDYAMGWYRQAPGKERELVAAITTSGAITYYADSVKGRFTISRDNAKNTVYLQMNSLKTEDTAVYYCNAKYVRWYGKYNYWGQGTQVTVSS", "polyreactivity (PSR sort gate)": "high polyreactivity"}, {"sequence": "QVQLVESGGGLVQAGGSLRLSCAASGRTFGWNAMGWYRQAPGKERELVAAITRGGITNYADSVKGRFTISRDNAKNTVYLQMNSLKPEDTAVYYCNKKFYRGASRYYYWGQGTQVTVSS", "polyreactivity (PSR sort gate)": "high polyreactivity"}, {"sequence": "QVQLVESGGGLVQAGGSLRLSCAASGSIFFWYTMGWYRQAPGKERELVATITGSGSSTTYADSVKGRFTISRDNAKNTVYLQMNSLKPEDTAVYYCAAADIIDHSFPYDYWGQGTQVTVSS", "polyreactivity (PSR sort gate)": "low polyreactivity"}, {"sequence": "QVQLVESGGVLVQAGGSLRLTCAASGSTFLYNAMGWYRQAPGKEREFVAAISGSGGTTYYADSVKGRFTISRDNAKNTVYLQMNSLKPEDTAVYYCAVSQSWYWYYASDYWGQGTQVTVSS", "polyreactivity (PSR sort gate)": "low polyreactivity"}, {"sequence": "QVQLVESGGGLVQAGGSLRLSCAASGSIFLYYAMGWYIQATGKERELVATITSGGRTSYADSVKGRFTISRDNAKNTVYLKMNSLKPEDTAVYYCAGRYGWFTPYDYWGQGTQVTVSS", "polyreactivity (PSR sort gate)": "high polyreactivity"}, {"sequence": "QVQLVESGGGLVQAGGSLRLSCAASGIILDHYAMGWYRQAPGKERELVAAISSGTRTNYADSVKGRFTISRDNAKNTVYLQMNSLKPEDTAVYYCAATIYRRYRSKSSITSYWGQGSQVTVSS", "polyreactivity (PSR sort gate)": "high polyreactivity"}, {"sequence": "QVQLVESGGGLVQAGGSLRLSCAASGRTFPGYAMGWYREAPGKERELVAAISSSGGSTYYADSVKGRFTISRDNAKNTVYFQMNSLKPEVTAVYSCAVPYWYGRGHCYWGQGTQVTVSS", "polyreactivity (PSR sort gate)": "low polyreactivity"}, {"sequence": "QVQLVESGGGLVQAGGSLRLSCAASGRTFPGNAMGWYRQAPGKERELVATITWSSGRTHYADSVKGRFTISRDNAKNTVYLQMNSLKPEDTAVYYCAAKLIVAVGGFYYWGQGTQVTVSS", "polyreactivity (PSR sort gate)": "low polyreactivity"}, {"sequence": "QVQLVESGGGLVQAGGSHRLSCAASGFTFTYYAMGWYRQAPGKERELVADITSGGGTNYADSVKGRFTISRDNAKNTVFLQMNSLKPEDTAVYYCAADAYHQGMDYWGQGTQVTVSS", "polyreactivity (PSR sort gate)": "low polyreactivity"}, {"sequence": "QVQLVESGRGLFQAGGSLRLSCAPSGIIIVNYAMGWYRQAPGKERELVAAITTSGGSTYYADSVKGRFTISRDHAKNTVYLQMNSLKPEDTAVYDCAKKSSLFKHVVRYDYWGQGTQVTVSS", "polyreactivity (PSR sort gate)": "low polyreactivity"}, {"sequence": "QVQLVESGGGLVQAGGSLRLSCAASGFIFYDYAMGWYRQAPGKERELVAVITSGGSTYYADSVKGRFTISRDNAKNTVYLQMNSLKPEDTAVYYCNADWVFTWYDYPNDTYDYWGQGTQVTVSS", "polyreactivity (PSR sort gate)": "low polyreactivity"}, {"sequence": "QVQLVESGGGLVQAGGSLRLSCAASGGIFTYYAMGWYRQAPGKERELVAAITWSGGSTYYADSVKGRFTISRDTAKNTVYLQMNSLKPEDTAVYYCNAVVLHVTTDNSTFTTDDYWGQGTQLTVSS", "polyreactivity (PSR sort gate)": "low polyreactivity"}, {"sequence": "QVQLEESGGGLVQAGGSLRLSCAASGFTFYIYALGWYRQAPGKERELVAAISSSGTRTYYADSVKGRFTISRDNAKNTVYLQMNSLKPEDTAVYYCAATRYSWHNRVSRRHRYDYWGQGTQVTVSS", "polyreactivity (PSR sort gate)": "high polyreactivity"}, {"sequence": "QVQLVESGGGLVQAGGSLRLSCAASGRIFRYYAMGWYRQAPGKERELVAAISSGGSTNYADSVKGRFTISRDNAKNTVYIQMNSLKPEDTPVYYCAAEWYSYGARSSYGGSRNDYWGQGTQVTVSS", "polyreactivity (PSR sort gate)": "low polyreactivity"}, {"sequence": "QVQLVESGGGLVQAGGSLRLSCAASGRTFGGNAMGWYRQAPGKERELVAAISRSGGRTYYADSVKGRFTISRDNAKNTVYLQMNSLKPEDTAVYYCAAKYQYTQYDYWGQGTQVTVSS", "polyreactivity (PSR sort gate)": "high polyreactivity"}]}]}
